Publication PMC3397948, “Cytoplasmic Sulfurtransferases in the Purple Sulfur Bacterium Allochromatium vinosum: Evidence for Sulfur Transfer from DsrEFH to DsrC” (PLoS ONE, 2012)

B1: DsrC from Allochromatium vinosum, wild type [Allochromatium vinosum] / DsrEFH from Allochromatium vinosum (DsrE2F2H2 heterohexamer), wild type [Allochromatium vinosum] (parent complex)
chain 1: MADTIEVDGKQFAVDEEGYLSNLNDWVPGVADVMAKQDNLELTEEHWDIINFLREYYEEYQIAPAVRVLTKAVGKKLGKEKGNSKYLYSLFPYGPAKQACRFAGLPKPTGCV
chain 2: MKFALQINEGPYQHQASDSAYQFAKAALEKGHEIFRVFFYHDGVNNSTRLTTPPQDDRHIVNRWAELAEQYELDMVVCVAAAQRRGIVDEGEASRNGKDATNIHPKFRISGLGQLVEAAIQADRLVVFGD
chain 3: MSEVVKKFMYLNRKAPYGTIYAWEALEVVLIGAAFDQDVCVLFLDDGVYQLTRGQDTKGIGMKNFSPTYRTLGDYEVRRIYVDRDSLEARGLTQDDLVEIAFEDMETEEEFDNIVEVIDSARVSELMNESDAVFSF
chain 4: MSILHTVNKSPFERNSLESCLKFATEGASVLLFEDGIYAALAGTRVESQVTEALGKLKLYVLGPDLKARGFSDERVIPGISVVDYAGFVDLTTECDTVQAWL

Variants of: B1
Assay: SPR; DsrEFH immobilized; reduced analyte, 80 nM; parent: 35; read off a plot

response | Variant
~3 RU | chain 1 MADTIEVDGKQFAVDEEGYLSNLNDWVPGVADVMAKQDNLELTEEHWDIINFLREYYEEYQIAPAVRVLTKAVGKKLGKEKGNSKYLYSLFPYGPAKQACRFAGLPKPTGSV
~31 RU | chain 1 MADTIEVDGKQFAVDEEGYLSNLNDWVPGVADVMAKQDNLELTEEHWDIINFLREYYEEYQIAPAVRVLTKAVGKKLGKEKGNSKYLYSLFPYGPAKQASRFAGLPKPTGCV
~2.8 RU | chain 1 MADTIEVDGKQFAVDEEGYLSNLNDWVPGVADVMAKQDNLELTEEHWDIINFLREYYEEYQIAPAVRVLTKAVGKKLGKEKGNSKYLYSLFPYGPAKQASRFAGLPKPTGSV
